Experimental data as given in publication PMC13042586, “ATP13A2 is involved in intracellular polyamine transport in lung epithelial cells” (FEBS Open Bio, 2025).

Substrate: NCCCCNCCCN
Assay: polyamine-dependent ATPase activity (Pi release, molybdate), Hill fit
Type: biochemical, Homo sapiens
Settings: microsomes of overexpressing H441 cells, 2 mM ATP, 5 mM MgCl2, 20 mM Tris-HCl pH 8.0, 10% glycerol, 1 mM DTT, 37 °C, 30 min, Hill coefficient n = 1, constant printed as Kd but from ATPase stimulation
Source text: polyamine-dependent ATPase activity (Pi release, molybdate), Hill fit on ATP13A2 | Polyamine dependence of ATP13A2 was fitted to the Hill equation

B1: ATP13A2 (Homo sapiens) (protein)
chain: MSADSSPLVGSTPTGYGTLTIGTSIDPLSSSVSSVRLSGYCGSPWRVIGYHVVVWMMAGIPLLLFRWKPLWGVRLRLRPCNLAHAETLVIEIRDKEDSSWQLFTVQVQTEAIGEGSLEPSPQSQAEDGRSQAAVGAVPEGAWKDTAQLHKSEEAVSVGQKRVLRYYLFQGQRYIWIETQQAFYQVSLLDHGRSCDDVHRSRHGLSLQDQMVRKAIYGPNVISIPVKSYPQLLVDEALNPYYGFQAFSIALWLADHYYWYALCIFLISSISICLSLYKTRKQSQTLRDMVKLSMRVCVCRPGGEEEWVDSSELVPGDCLVLPQEGGLMPCDAALVAGECMVNESSLTGESIPVLKTALPEGLGPYCAETHRRHTLFCGTLILQARAYVGPHVLAVVTRTGFCTAKGGLVSSILHPRPINFKFYKHSMKFVAALSVLALLGTIYSIFILYRNRVPLNEIVIRALDLVTVVVPPALPAAMTVCTLYAQSRLRRQGIFCIHPLRINLGGKLQLVCFDKTGTLTEDGLDVMGVVPLKGQAFLPLVPEPRRLPVGPLLRALATCHALSRLQDTPVGDPMDLKMVESTGWVLEEEPAADSAFGTQVLAVMRPPLWEPQLQAMEEPPVPVSVLHRFPFSSALQRMSVVVAWPGATQPEAYVKGSPELVAGLCNPETVPTDFAQMLQSYTAAGYRVVALASKPLPTVPSLEAAQQLTRDTVEGDLSLLGLLVMRNLLKPQTTPVIQALRRTRIRAVMVTGDNLQTAVTVARGCGMVAPQEHLIIVHATHPERGQPASLEFLPMESPTAVNGVKDPDQAASYTVEPDPRSRHLALSGPTFGIIVKHFPKLLPKVLVQGTVFARMAPEQKTELVCELQKLQYCVGMCGDGANDCGALKAADVGISLSQAEASVVSPFTSSMASIECVPMVIREGRCSLDTSFSVFKYMALYSLTQFISVLILYTINTNLGDLQFLAIDLVITTTVAVLMSRTGPALVLGRVRPPGALLSVPVLSSLLLQMVLVTGVQLGGYFLTLAQPWFVPLNRTVAAPDNLPNYENTVVFSLSSFQYLILAAAVSKGAPFRRPLYTNVPFLVALALLSSVLVGLVLVPGLLQGPLALRNITDTGFKLLLLGLVTLNFVGAFMLESVLDQCLPACLRRLRPKRASKKRFKQLERELAEQPWPPLPAGPLR
notes: full-length with C-terminal TEV site, Halo tag and 6xHis (tags kept; ATP13A2-Halo, theoretical mass 165 K), adenovirus-mediated overexpression in NCI-H441 cells, microsome fraction
K0.5: 1.00 mM
